Values quoted from earlier work, collected in patent US11963996B2, “Method of treating knee pain” (ORTHOTROPHIX, Inc., priority 2018, dated 2024).

Key:
[1] = test system: human osteoblastic mesenchymal stem cells; conditions: cited from earlier work
OA patients = conditions: human, in vivo; cited from earlier work
subjects with knee OA = conditions: vs placebo, cited from earlier work

**Q.** With “rat orthologue: TPX-100 orthologue PDLLVRGDNDVPPFSGDGQHFMH (Rat/Mouse)” as the molecule, how does the Tritium-thymidine incorporation [1] read?
**A.** The Tritium-thymidine incorporation was “promote tritium-thymidine incorporation”.

**Q.** With N#Cc1c(N(CC(=O)[O-])CC(=O)[O-])sc(C(=O)[O-])c1CC(=O)[O-].[Sr+2].[Sr+2] [strontium ranelate] as the molecule, how does the “Risk of myocardial infarction” value (OA patients) read?
**A.** Its value is “increase the risk of myocardial infarction”.

B1: FGF-18: Fibroblast Growth Factor-18, a.k.a. Sprifermin, candidate DMOAD, a putative chondrocyte growth factor (protein, UniProt O76093 28-207, looked up)
Fibroblast growth factor 18: EENVDFRIHVENQTRARDDVSRKQLRLYQLYSRTSGKHIQVLGRRISARGEDGDKYAQLLVETDTFGSQVRIKGKETEFYLCMNRKGKLVGKPDGTSKECVFIEKVLENNYTALMSAKYSGWYVGFTKKGRPRKGPKTRENQQDVHFMKRYPKGQPELQKPFKYTTVTKRSRRIRPTHPA
modifications: sprifermin
notes: Fibroblast Growth Factor-18, a.k.a; Sprifermin, candidate DMOAD, a putative chondrocyte growth factor
**Q.** Which “Clinical benefit (WOMAC)” value (subjects with knee OA; 24 months) does the source give for B1 here?
**A.** Its value is “no difference in clinical benefit was detected in any treatment group when compared with placebo”.

**Q.** What about the Clinical benefit (subjects with knee OA; 36 months) of the same molecule?
**A.** The Clinical benefit was “failed to demonstrate clinical benefit compared with the placebo-treated group”.

**Q.** What about the “Tibiofemoral cartilage thickness by MRI” value (subjects with knee OA; three once-weekly IA injections, repeated at months 6, 12, 18, 24 months) of the same molecule?
**A.** Its value is “dose-dependent increases in tibiofemoral cartilage thickness compared with the placebo group”.
